From PMC13585564
Each block holds one substance with its values, some of them ahead of it.

Tests used:
[1] = biological target: HSL3 ectodomain (wild type, residues 23–627); experiment: ITC; conditions: ligand in syringe, receptor in cell; N = 1
[2] = biological target: HSL3 ectodomain (wild type, residues 23–627) (Arabidopsis); experiment: ITC; CTNIP4 peptide (140–800 µM, syringe) injected into 15 µM HSL3 ectodomain or variant (cell); 25 °C; 20 mM sodium citrate, 150 mM NaCl, pH 5.0; N fitted to 1
[3] = biological target: SERK1 ectodomain (residues 24–213) (UniProt Q94AG2); experiment: ITC; conditions: SERK1 in syringe; HSL3 + peptide in cell; N = 1
CTNIP4(46–70)_(Cys–Cys) = experiment: ITC; conditions: ligand in syringe, receptor in cell; N = 1
SERK3 = experiment: ITC; conditions: SERK3 in syringe; HSL3 + peptide in cell; N = 1

SERK1 ectodomain (residues 24–213), sequence (Q94AG2 whole entry, looked up, the tested form may be a part): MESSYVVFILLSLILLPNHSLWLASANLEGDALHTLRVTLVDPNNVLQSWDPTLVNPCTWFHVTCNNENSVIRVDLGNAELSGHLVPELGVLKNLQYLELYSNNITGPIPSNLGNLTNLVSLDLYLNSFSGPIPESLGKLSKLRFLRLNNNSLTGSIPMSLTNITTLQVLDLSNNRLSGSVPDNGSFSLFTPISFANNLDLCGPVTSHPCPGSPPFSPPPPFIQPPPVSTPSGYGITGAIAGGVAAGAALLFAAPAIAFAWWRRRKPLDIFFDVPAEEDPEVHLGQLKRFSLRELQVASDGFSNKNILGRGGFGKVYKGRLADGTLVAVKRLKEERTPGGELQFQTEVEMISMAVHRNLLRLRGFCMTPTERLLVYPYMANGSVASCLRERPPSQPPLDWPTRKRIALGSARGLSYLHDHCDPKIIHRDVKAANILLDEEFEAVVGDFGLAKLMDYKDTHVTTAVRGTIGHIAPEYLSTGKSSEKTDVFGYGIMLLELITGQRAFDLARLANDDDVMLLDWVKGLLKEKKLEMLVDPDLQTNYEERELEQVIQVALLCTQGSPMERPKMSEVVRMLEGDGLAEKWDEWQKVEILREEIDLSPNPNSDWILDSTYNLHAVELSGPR

Substance: CTNIP4(46–70)_(Cys–Cys) S53A
Kd [1]: 3440 nM
other: ΔH [1]: -17.5 kcal/mol

Substance: CTNIP4^C58A.C68A(46–70)_(linear) (peptide)
fold impairment of binding against CTNIP4(46–70) (Cys–Cys) [2]: 200 fold

Substance: HSL3 + CTNIP4(46–63) C58A
other: ΔH [3]: -3.7 kcal/mol

Substance: HSL3 ectodomain (wild type, residues 23–627) D288A
other: ΔH (CTNIP4(46–70)_(Cys–Cys)): -3.4 kcal/mol

Substance: HSL3 ectodomain (wild type, residues 23–627) E171A
other: ΔH (CTNIP4(46–70)_(Cys–Cys)): -21.2 kcal/mol

Substance: HSL3–CTNIP4 complex (HSL3 ectodomain pre-incubated with CTNIP4(46–70)_(Cys–Cys)) N60F
other: ΔH (SERK3): 13.2 kcal/mol

Second part, the substance after the results:

other: ΔH (CTNIP4(46–70)_(Cys–Cys)): -17.6 kcal/mol
Substance: HSL3 ectodomain (wild type, residues 23–627) D241A

Kd (CTNIP4(46–70)_(Cys–Cys)): 112 nM
other: ΔH (CTNIP4(46–70)_(Cys–Cys)): -25.9 kcal/mol
Substance: HSL3 ectodomain (wild type, residues 23–627) R358A

other: ΔH [3]: -7.1 kcal/mol
Substance: HSL3–CTNIP4 complex (HSL3 ectodomain pre-incubated with CTNIP4(46–70)_(Cys–Cys)) C58A; C68A

other: ΔH (SERK3): 3.3 kcal/mol
Substance: HSL3–CTNIP4 complex (HSL3 ectodomain pre-incubated with CTNIP4(46–70)_(Cys–Cys)) N60A
